T1: biotinylated recombinant mouse IL-12Rβ2 (produced in-house) (mouse, UniProt P97378 24-637, random biotinylated)
T1 construct: also called mIL-12RB2; mIL12RB2
T1 sequence: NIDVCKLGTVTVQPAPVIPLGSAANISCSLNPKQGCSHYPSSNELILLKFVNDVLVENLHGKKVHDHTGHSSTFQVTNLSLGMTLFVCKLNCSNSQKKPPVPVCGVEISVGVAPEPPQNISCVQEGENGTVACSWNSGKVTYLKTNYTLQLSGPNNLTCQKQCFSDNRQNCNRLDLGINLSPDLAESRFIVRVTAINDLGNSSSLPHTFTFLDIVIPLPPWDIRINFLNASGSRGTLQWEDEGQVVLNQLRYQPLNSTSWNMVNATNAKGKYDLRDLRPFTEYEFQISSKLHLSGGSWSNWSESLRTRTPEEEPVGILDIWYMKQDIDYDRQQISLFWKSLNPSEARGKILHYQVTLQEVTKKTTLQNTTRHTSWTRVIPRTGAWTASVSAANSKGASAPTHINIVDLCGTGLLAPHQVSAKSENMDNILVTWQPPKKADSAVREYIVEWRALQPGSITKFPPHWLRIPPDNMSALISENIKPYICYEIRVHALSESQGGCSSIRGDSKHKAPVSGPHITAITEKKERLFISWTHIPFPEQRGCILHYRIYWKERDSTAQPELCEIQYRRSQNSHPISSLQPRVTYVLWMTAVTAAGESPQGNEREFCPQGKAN

T2: mouse IL-12Rβ2 expressed on cells (mouse, UniProt P97378 24-874)
T2 construct: HEK293T cells, stably transduced (cDNA NM_008354); also called mIL-12RB2
T2 sequence: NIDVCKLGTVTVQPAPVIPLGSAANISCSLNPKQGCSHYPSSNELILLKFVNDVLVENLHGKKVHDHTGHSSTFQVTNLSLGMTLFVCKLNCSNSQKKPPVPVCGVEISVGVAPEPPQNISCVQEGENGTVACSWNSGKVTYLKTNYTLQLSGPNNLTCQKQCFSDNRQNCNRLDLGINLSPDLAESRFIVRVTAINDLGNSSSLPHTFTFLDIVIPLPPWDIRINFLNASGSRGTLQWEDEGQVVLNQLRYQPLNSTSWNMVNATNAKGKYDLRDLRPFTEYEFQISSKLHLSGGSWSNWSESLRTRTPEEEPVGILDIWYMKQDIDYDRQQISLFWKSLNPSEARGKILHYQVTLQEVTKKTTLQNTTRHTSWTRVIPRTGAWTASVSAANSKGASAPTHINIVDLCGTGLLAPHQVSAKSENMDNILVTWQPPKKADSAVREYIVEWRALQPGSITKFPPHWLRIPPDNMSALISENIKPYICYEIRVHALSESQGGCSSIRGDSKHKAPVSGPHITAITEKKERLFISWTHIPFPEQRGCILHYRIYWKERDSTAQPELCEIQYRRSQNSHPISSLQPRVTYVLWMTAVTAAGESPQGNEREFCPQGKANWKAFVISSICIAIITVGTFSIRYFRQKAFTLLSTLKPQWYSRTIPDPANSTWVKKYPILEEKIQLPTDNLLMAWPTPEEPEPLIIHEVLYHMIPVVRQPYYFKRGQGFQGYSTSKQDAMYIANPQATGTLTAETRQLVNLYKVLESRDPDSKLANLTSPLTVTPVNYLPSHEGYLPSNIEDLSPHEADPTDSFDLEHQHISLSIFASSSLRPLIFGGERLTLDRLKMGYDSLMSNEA

T3: human IL-12Rβ2 expressed on cells (human, UniProt Q99665 24-862)
T3 construct: HEK293T cells transiently transfected with a human IL-12Rβ2 plasmid (Genscript OHu21785); also called hIL-12RB2
T3 sequence: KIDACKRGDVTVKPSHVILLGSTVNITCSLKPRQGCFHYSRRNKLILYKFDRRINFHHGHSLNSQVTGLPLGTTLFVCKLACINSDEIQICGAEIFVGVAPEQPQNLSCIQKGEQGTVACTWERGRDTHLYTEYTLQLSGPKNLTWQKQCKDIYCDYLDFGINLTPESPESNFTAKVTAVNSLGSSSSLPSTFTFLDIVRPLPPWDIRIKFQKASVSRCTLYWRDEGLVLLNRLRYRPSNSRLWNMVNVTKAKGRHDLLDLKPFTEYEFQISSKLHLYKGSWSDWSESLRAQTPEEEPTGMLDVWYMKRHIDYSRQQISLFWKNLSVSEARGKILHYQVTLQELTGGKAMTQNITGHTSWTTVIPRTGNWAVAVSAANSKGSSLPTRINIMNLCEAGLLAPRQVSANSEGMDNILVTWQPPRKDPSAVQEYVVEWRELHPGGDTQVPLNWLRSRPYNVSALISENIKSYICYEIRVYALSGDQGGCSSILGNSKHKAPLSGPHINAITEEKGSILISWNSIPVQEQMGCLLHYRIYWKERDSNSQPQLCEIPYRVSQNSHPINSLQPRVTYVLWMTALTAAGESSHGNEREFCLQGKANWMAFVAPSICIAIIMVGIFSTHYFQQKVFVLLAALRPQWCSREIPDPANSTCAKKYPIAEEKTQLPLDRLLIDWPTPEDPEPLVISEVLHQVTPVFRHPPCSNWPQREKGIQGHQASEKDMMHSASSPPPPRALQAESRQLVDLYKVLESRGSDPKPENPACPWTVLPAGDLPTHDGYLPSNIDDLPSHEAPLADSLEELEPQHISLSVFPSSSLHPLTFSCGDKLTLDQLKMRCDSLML

B1: anti-IL-12Rβ2 VHH clone 3CRHM99 (VHH, not shown: small tags and cut ends)
VHH: QVQLQESGGGLVQPGGSLRLSCAASGISSSRLHVGWFRQSPGKEREFVAAISLSGGTQAYTDSVKGRFTISGDNVKNTAYLQMNSLRPEDTAVYYCAARERFIWTWSDLTYDYWGQGTQVTVSS
notes: tested as periplasmic extract; also called 21062
B2: anti-IL-12Rβ2 VHH clone 3CAHM11 (VHH, not shown: small tags and cut ends)
VHH: QVQLQESGGGLVQAGGSLRLSCAASGRTFNNYAMAWFRQAPGKEREFIAAITRSDTTLYIDSVKGRFTISRDNAKNTVALQMNSLKPEDTAVYYCAAGMPYSYSDYPRDSKYDYWGRGTQVTVSS
notes: tested as periplasmic extract
B3: anti-IL-12Rβ2 VHH clone 3CRHM73 (VHH, not shown: small tags and cut ends)
VHH: QVQLQESGGGLVQAGGSLSLSCAASGSAFRLNFMGWYRQAPGKQRELVAAINSGGTEIYHDSVKGRFTISRDNADSTVWLQMNSLKPDDTAVYYCAADRGISWSKLAGGMDYWGKGTQVTVSS
notes: tested as periplasmic extract; also called 21060
B4: anti-IL-12Rβ2 VHH clone 3CRHM14 (VHH, not shown: small tags and cut ends)
VHH: QVQLQESGGGLVQAGGSLRLSCAASGRTFSNYAMAWFRQAPGTEREFVAGLSGSGGDTEFYDDSVKGRFAISRDSAKNTVWLQMNSLKPEDTAVYYCAAATHVVVHYGLVRRRGTYDYWGQGTQVTVSS
notes: tested as periplasmic extract

These binders were tested against T1, biotinylated recombinant mouse IL-12Rβ2 … (assay: BLI (Octet), P.E. VHH on immobilised biotinylated mIL-12RB2, 1:1 model).

Binder	koff
B1	0.00671 s⁻¹
B2	0.00462 s⁻¹
B3	0.00605 s⁻¹
B4	0.00483 s⁻¹

These binders were tested against T2, mouse IL-12Rβ2 expressed on cells (assay: flow cytometry, P.E. VHH on HEK293T cells transiently expressing mIL-12RB2).

Binder	% cells bound	dMFI
B1	10.7%	251
B2	7.53%	194
B3	10.4%	257
B4	18.6%	312

These binders were tested against T3, human IL-12Rβ2 expressed on cells (assay: flow cytometry, P.E. VHH on HEK293T cells transiently expressing hIL-12RB2).

Binder	dMFI
B1	458
B2	684
B3	297
B4	589
